B1: X10F3 human IgG1 chimeric mAb (antibody, V domains shown)
VH: QVQLEQSGAEVKKPGTSVKVSCKASGFFTFGSDAISWVRQAPGQGLEWMGVIIPVVGARTYAEKFQGRITITADTSTSTVFMDLSSLRSDDTAVYYCAREGARAATGHYKSMDIWGRGRTLV
VL: ELQMTQSPSSLSASVGDRVTITCRASQDIGPFLNWYQHKPGKPPKLLIYDVSNLQDGVPSTFSGSGSGTDFTLTISNLQPEDFATYYCLHYANYPRTFGPGTKVEIK
B2: X10B6 human IgG1 chimeric mAb (antibody, V domains shown)
VH: B1 VH
VL: ELLMTQSPSSLSASVGDRVTITCRASQGISTYLSWFQQKPGKPPKLLIYLTSSLEDGVPSRFSGAGSGTEFTLTISNLQPEDFASYYCLQYQSYPRTFGPGTKVEIK
B3: X10H2 human IgG1 chimeric mAb (antibody, V domains shown)
VH: QVQLEQSGAEVKKPGTSVKVSCKASGFTFGSDAISWVRQAPGQGLEWMGVIIPVVGARTYAEKFQGRITITADTSTSTVFMDLSSIRSDDTAVYYCAREGARAATGHYKSMDIWGRGTLV
VL: EIELTQSPSSLYASVGDKVTITCRASQGISTYLNWYQQKPGKAPKLLIYAASSLQSGVPSRFSGSGSGTEFTLTISSLQPEDFAAVYCQQYNSYPRTFGQGTKVEIK
B4: 16F6 human IgG1 chimeric mAb (antibody, V domains shown)
VH: EVQLVESGGGLVTPGGSLKLSCAASGFAFNYYDMFWVRQNTEKRLEWVAYINSGGGNTYYPDTVKGRFTISRDNAKKTLFLQMSSLRSEDTAMYYCARQLYGNSFFDYWGQGTSLTV
VL: DIVMTQSHKFMSTSVGDRVTITCKASQDVTTAVAWYQQKPGHSPKLLIYWASTRHTGVPDRFTGSGSGTDFTLTLNSVQAEDLALYYCQQHYSTPLTFGAGTKLEL
B5: X10B1 human IgG1 chimeric mAb (antibody, V domains shown)
VH: EVQLLESGPSLVKPSETLTLTCAVSGASISGDYLNWIRQPPGKGLEWIGGIFGSGGSTDYSPSFKSRVTISTDTSKNQFSLKLTSMTTADTAVYFCATALRGARFDAFDFWGQGRRV
VL: DIELTQSPATLSLSPGERATLSCRASQSVSTYLAWYQKKPGQAPRLLFYGASNRATGIPDRFSGRRSGTDFTLTISSLEPEDVGVYYCQQYNKWNSFGQGTKVEIK
B6: 17F6 human IgG1 chimeric mAb (antibody, V domains shown)
VH: DVQLQESGPGLVKPSQTVSLTCTVTGISITAGNYRWSWIRQFPGNKLEWIGYIYYSGTIAYNPSLTSRTAITRDSSKNQFFLEMNSLTAEDTATYYCARDRGWLLLDYWGQGTTLTVSS
VL: DVLMTQTPLSLPVSLGDQASISCRSSQTIVHSNGNTYLEWYLQKPGQSPKLLIYKVSSRFSGVPDRFSGSGSGTDFTLKISRVEAEDLGVYYCFQGSHFPYTFGGGTKLEIKR

target: T1, recombinant EBOV GP (Ebola virus (EBOV), UniProt Q05320 33-650); test: ELISA on plates coated with recombinant EBOV GP
T1 sequence: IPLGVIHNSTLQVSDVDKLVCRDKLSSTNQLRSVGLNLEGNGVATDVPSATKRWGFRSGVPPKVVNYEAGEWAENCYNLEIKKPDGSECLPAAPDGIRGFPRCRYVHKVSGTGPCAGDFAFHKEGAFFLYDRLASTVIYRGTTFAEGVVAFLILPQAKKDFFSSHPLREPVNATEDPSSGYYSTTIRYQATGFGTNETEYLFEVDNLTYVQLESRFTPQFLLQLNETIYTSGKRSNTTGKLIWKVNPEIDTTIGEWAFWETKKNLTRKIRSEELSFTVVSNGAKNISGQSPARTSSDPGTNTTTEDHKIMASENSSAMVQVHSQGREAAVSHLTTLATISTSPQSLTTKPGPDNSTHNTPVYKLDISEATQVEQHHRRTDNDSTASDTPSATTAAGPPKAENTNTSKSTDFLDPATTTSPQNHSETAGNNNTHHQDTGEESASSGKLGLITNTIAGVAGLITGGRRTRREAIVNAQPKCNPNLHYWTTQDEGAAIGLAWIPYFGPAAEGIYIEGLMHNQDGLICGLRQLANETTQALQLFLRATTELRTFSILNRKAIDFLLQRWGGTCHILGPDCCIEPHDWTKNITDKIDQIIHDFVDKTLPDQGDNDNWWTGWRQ

| Binder | binding result |
| --- | --- |
| B1 | no binding |
| B2 | no binding |
| B3 | no binding |
| B4 | no binding |
| B5 | no binding |
| B6 | no binding |

Reference: patent publication US20230174627A1 (published 2023)
